Target: hBAFF-R-GFP fusion protein on mouse fibroblast L cells (clone D2C) (human) (UniProt Q96RJ3)
Assay: flow cytometry on BAFF-R-expressing D2C L cells, 0.5 µg recombinant BAFF/10^6 cells, anti-BAFF-PE; unstained cells 0.0217; in the signal plot the 0 ng trace peaks between 10^2 and 10^3, the unstained one at about 10^2

## recombinant BAFF ligand (from UniProt Q9Y275 134-285)
  gate number, percent of cells above the BAFF-PE line (no % sign printed): 59.6%

Reference: patent US20200190204A1
